Seven molecules from patent US20250281611A1 (BIOSCEPTRE AUST, published 2025) can be followed below.

One assay deals with T1, CD70 (UniProt P32970 1-193, limits assumed).
T1 construct: whole, on cells
T1 sequence (looked up): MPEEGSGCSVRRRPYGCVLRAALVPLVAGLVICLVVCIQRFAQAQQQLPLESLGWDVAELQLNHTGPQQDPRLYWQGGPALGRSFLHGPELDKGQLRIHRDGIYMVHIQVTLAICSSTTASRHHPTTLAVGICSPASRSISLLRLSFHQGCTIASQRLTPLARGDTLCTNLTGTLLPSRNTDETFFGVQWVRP
Description: flow cytometry, Raji cells. On the technique in general: Flow cytometry measures light scatter and fluorescence of single cells or particles in a stream.

Another assay addresses T2, BCMA (UniProt Q02223 1-184, limits assumed).
T2 construct: whole, on cells
T2 sequence (looked up): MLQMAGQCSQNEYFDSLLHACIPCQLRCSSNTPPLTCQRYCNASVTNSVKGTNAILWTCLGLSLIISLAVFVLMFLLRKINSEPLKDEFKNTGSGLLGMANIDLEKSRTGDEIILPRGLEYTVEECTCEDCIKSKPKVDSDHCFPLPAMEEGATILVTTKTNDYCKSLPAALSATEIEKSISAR
Nature of the assay: flow cytometry, RPMI 8226 cells.

Another assay deals with T3, EGFR (UniProt P00533 25-1210).
T3 construct: whole, on cells
Description: flow cytometry, MDA-MB 231 and PC-3 cells.

The target in a further assay is T4, ROR1 (UniProt Q01973 30-937, limits assumed).
T4 construct: whole, on cells
Nature of the assay: flow cytometry, JeKo-1 cells.

A further assay concerns the target T5, CD135 (UniProt P36888 27-993, limits assumed).
T5 construct: whole, on cells; also called FLT-3
Description: flow cytometry, MOLM-13 cells.

Another assay has as its target T6, CD123 (UniProt P26951 19-378, limits assumed).
T6 construct: whole, on cells; also called IL3RA
Description: flow cytometry, MOLM-13 cells.

For the next assay, the target named is T7, CD22 (UniProt P20273 20-847, limits assumed).
T7 construct: whole, on cells
Nature of the assay: flow cytometry, Raji cells.

T6 sequence (P26951 19-378 limits assumed): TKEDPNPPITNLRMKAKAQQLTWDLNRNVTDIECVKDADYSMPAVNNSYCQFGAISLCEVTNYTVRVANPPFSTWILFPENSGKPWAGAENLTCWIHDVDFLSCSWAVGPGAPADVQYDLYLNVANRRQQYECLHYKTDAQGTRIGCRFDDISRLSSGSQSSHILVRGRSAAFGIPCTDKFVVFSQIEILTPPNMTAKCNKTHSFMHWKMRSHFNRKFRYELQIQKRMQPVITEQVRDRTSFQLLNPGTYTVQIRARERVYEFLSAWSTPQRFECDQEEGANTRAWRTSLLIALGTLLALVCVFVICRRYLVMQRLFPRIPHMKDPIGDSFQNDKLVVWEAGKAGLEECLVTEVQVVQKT

B1: CD70 bridging molecule (E200 + CD70 binder, Cusatuzumab, B028) (Fab, V domains shown)
VH: EVQLVESGGGLVQPGGSLRLSCAASGFTFSVYYMNWVRQAPGKGLEWVSDINNEGGTTYYADSVKGRFTISRDNSKNSLYLQMNSLRAEDTAVYYCARDAGYSNHVPIFDSWGQGTLVTVSS
VL: SQAVVTQEPSLTVSPGGTVTLTCGLKSGSVTSDNFPTWYQQTPGQAPRLLIYNTNTRHSGVPDRFSGSILGNKAALTITGAQADDEAEYFCALFISNPSVEFGGGTQLTVLK
For B1, the binding result with CD70 is listed as “binds”.

B2: BCMA bridging molecule (E200 + BCMA binder, clone CA8 J9M0, B039) (Fab, V domains shown)
VH: QVQLVQSGAEVKKPGSSVKVSCKGSGYTFTNYWMHWVRQAPGQGLEWIGATYRGHSDTYYNQKFKGRATLTADTSTSTAYMELSSLRSEDTAVYYCTRGAIYDGYDVLDNWGQGTLVTVSS
VL: DIQMTQSPSSLSASVGDRVTITCSASQDISNYLNWYQQKPGKAPKLLIYYTSNLHSGVPSRFSGSGSGTDFTLTISSLQPEDFATYYCQQYRKLPWTFGQGTKLEIKR
Consider B2, for which, in the assay with BCMA, the binding result is reported as “binds”.

B3: EGFR bridging molecule (E200 + EGFR binder, Matuzumab, B035) (Fab, V domains shown)
VH: QVQLVQSGAEVKKPGASVKVSCKASGYTFTSHWMHWVRQAPGQGLEWIGEFNPSNGRTNYNEKFKSKATMTVDTSTNTAYMELSSLRSEDTAVYYCASRDYDYDGRYFDYWGQGTLVTVSS
VL: DIQMTQSPSSLSASVGDRVTITCSASSSVTYMYWYQQKPGKAPKLLIYDTSNLASGVPSRFSGSGSGTDYTFTISSLQPEDIATYYCQQWSSHIFTFGQGTKVEIKR
Regarding B3, in the assay with EGFR, the binding result is “binds”.

B4: ROR1 bridging molecule (E200 + ROR-1 binder, clone D10v3, B044) (Fab, V domains shown)
VH: QVQLKESGPGLVAPSQTLSITCTVSGFSLTSYGVHWVRQPPGKGLEWLGVIWAGGFTNYNSALKSRLSISKDNSKSQVLLKMTSLQTDDTAMYYCARRGSSYSMDYWGQGTSVTVSS
VL: EIVLSQSPAITAASLGQKVTITCSASSNVSYIHWYQQRSGTSPRPWIYEISKLASGVPVRFSGSGSGTSYSLTISSMEAEDAAIYYCQQWNYPLITFGSGTKLEIQR
Consider B4, for which the binding result with ROR1 is reported as “binds”.

B5: CD135 bridging molecule (E200 + CD135 binder, clone 4G8, B041) (Fab, V domains shown)
VH: QVQLQQPGAELVKPGASLKLSCKSSGYTFTSYWMHWVRQRPGHGLEWIGEIDPSDSYKDYNQKFKDKATLTVDRSSNTAYMHLSSLTSDDSAVYYCARAITTTPFDFWGQGTTLTVSS
VL: DIVLTQSPATLSVTPGDSVSLSCRASQSISNNLHWYQQKSHESPRLLIKYASQSISGIPSRFSGSGSGTDFTLSINSVETEDFGVYFCQQSNTWPYTFGGGTKLEIKR
Regarding B5, in the assay with CD135, the binding result is listed as “binds”.

B6: CD123 bridging molecule (E200 + CD123 binder, clone 32716, B042) (Fab, V domains shown)
VH: QIQLVQSGPELKKPGETVKISCKASGYIFTNYGMNWVKQAPGKSFKWMGWINTYTGESTYSADFKGRFAFSLETSASTAYLHINDLKNEDTATYFCARSGGYDPMDYWGQGTSVTVSS
VL: DIVLTQSPASLAVSLGQRATISCRASESVDNYGNTFMHWYQQKPGQPPKLLIYRASNLESGIPARFSGSGSRTDFTLTINPVEADDVATYYCQQSNEDPPTFGAGTKLELKR
Regarding B6, in the assay with CD123, the binding result is “binds”.

B7: CD22 bridging molecule (E200 + CD22 binder, m971-L7, B023) (Fab, V domains shown)
VH: QVQLQQSGPGMVKPSQTLSLTCAISGDSVSSNSVAWNWIRQSPSRGLEWLGRTYYRSTWYNDYAVSMKSRITINPDTNKNQFSLQLNSVTPEDTAVYYCAREVTGDLEDAFDIWGQGTMVTVSS
VL: DIQMIQSPSSLSASVGDRVTITCRASQTIWSYLNWYRQRPGEAPNLLIYAASSLQSGVPSRFSGRGSGTDFTLTISSLQAEDFATYYCQQSYSIPQTFGQGTKLEIKR
Turning to B7, the binding result with CD22 was “binds”.
